The values below come from PMC6212565, “Human antibodies targeting Zika virus NS1 provide protection against disease in a mouse model” (Nature Communications, 2018).

The assay concerns the target T1, recombinant NS1 protein from Zika virus MR766 (Zika virus MR766 (Rhesus/1947/Uganda)).
T1 construct: also called MR766 NS1; NS1 from MR766; source: Expi293 cells transfected with pCAGGS-MR766-NS1, purified from the supernatant (Ni-NTA)
As to the kind of experiment: ELISA; plates coated with recombinant ZIKV NS1 at 2 μg per mL in pH 9.41 carbonate buffer overnight at 4 °C; mAbs from 10 μg per mL, serially diluted 3-fold, 2 h at room temperature; detected with HRP-conjugated goat anti-human IgG. Conditions: both partners purified.

B1: AA12 LALAPG (antibody, V domains shown)
VH: EVQLVESGGGLIQPGGSLRLSCAASGFTVSSNYMSWVRQAPGKGLEWVSVIYSGGSTYYADSVKGRFTISRDNSKNTLYLQMNSLRAEDTAVYYCARDRRGFDYWGQGTMVTVSS
VL: DIQMTQSPLSLSASVGDRVTITCRTSQSISSYLNWYQQKPGKAPKLLIYAASSLQSGVPSRFSGSGSGTDFTLTISSLQPEDFATYYCQQTYSTPLTFGGGTKVEIK
notes: also called mutated form of AA12; mutant AA12 mAb
B1: the binding result was “binds”.
